Experiment [1] addresses Francisella α2NTD (residues 1-242), bacterial two-hybrid fusion (Francisella tularensis subsp. novicida strain U112). Kind of experiment: two-hybrid.
Experiment [2] concerns the target Francisella α1NTD (residues 1-244), bacterial two-hybrid fusion (Francisella tularensis subsp. novicida strain U112) (UniProt A0Q4K8). Kind of experiment: two-hybrid.

In experiment [1], “Francisella α1NTD (residues 1-244), bacterial two-hybrid fusion (from UniProt A0Q4K8 1-244) (domain or fragment)” displayed a β-galactosidase activity (Miller units) of 662 Miller units.
In turn, “Francisella α2NTD (residues 1-242), bacterial two-hybrid fusion (domain or fragment)” yielded a β-galactosidase activity (Miller units) in experiment [2] of 1410 Miller units.

The values are drawn from paper PMC3294249.
